Percent monomer and stoichiometry N data for two substances are collected here from publication PMC6287623.

Assay [1] deals with Manα2Manα2Manα-ThrB27 insulin glycoform 13 (human). The assay can be described thus: AUC.
For assay [2], the target named is unglycosylated human insulin 1 (human). The assay can be described thus: AUC.

Turning to “Manα2Manα2Manα-ThrB27 insulin glycoform 13 (natural protein)”, the percent monomer in assay [1] is greater than 70%.
As a reminder, the stoichiometry N is a count of units in the complex or per binding partner. Consider “unglycosylated human insulin 1 (natural protein)”, for which the stoichiometry N in assay [2] came to 2.
